PMC3643951 (PLoS ONE, 2013)

T1: S100A1 protein, dansyl-labelled (human, UniProt P23297 1-94, dansyl (DNS) label from dansyl chloride, site not stated)
T1 construct: human S100A1; cDNA cloned into pET28b; No tag is mentioned; purification was by Phenyl Sepharose; also called DNS-S100A1; Ca2+-S100A1; source: E. coli BL21, purified (Phenyl Sepharose CL4B, Superdex 75), labelled with dansyl chloride
T1 sequence (looked up): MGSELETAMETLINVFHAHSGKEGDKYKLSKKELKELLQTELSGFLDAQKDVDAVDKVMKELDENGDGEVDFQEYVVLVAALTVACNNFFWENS


Biological target: T1, S100A1 protein, dansyl-labelled
Assay: fluorescence polarisation; steady-state fluorescence anisotropy; TRPC6 construct titrated into DNS-S100A1 solution (232 µM as printed) in presence of calcium ions; excitation 340 nm, emission 520 nm
Settings: both partners purified

| Binder | Kd [nM] |
| --- | --- |
| TRPC6(801–878) K856A (domain or fragment, rat, UniProt Q99N78 801-878, looked up, C-terminal part of rat TRPC6, amino acids 801-878, with K856A; Same construct as m1 (pET42b) with the point mutation; source: E. coli Rosetta, purified (Chelating Sepharose Fast Flow, Superdex 75)) NKRNEEKKFGILGSHEDLSKFSLDRNQLAHNKQSSTRSSEDFHLNSFSNPPRQYQAIMKRLIKRYVLQAQIDKESDEV | 760 |
| TRPC6(801–878) K859A/R860A/R864A (domain or fragment, rat, UniProt Q99N78 801-878, looked up, C-terminal part of rat TRPC6, amino acids 801-878, with K859A, R860A and R864A; Same construct as m1 (pET42b) with the triple substitution; also called triple substitution Lys859/Arg860/Arg864; source: E. coli Rosetta, purified (Chelating Sepharose Fast Flow, Superdex 75)) NKRNEEKKFGILGSHEDLSKFSLDRNQLAHNKQSSTRSSEDFHLNSFSNPPRQYQKIMAALIKAYVLQAQIDKESDEV | 400 |
| TRPC6(801–878) R852A (domain or fragment, rat, UniProt Q99N78 801-878, looked up, C-terminal part of rat TRPC6, amino acids 801-878, with R852A; Same construct as m1 (pET42b) with the point mutation; also called TRPC6 single mutant R852A; source: E. coli Rosetta, purified (Chelating Sepharose Fast Flow, Superdex 75)) NKRNEEKKFGILGSHEDLSKFSLDRNQLAHNKQSSTRSSEDFHLNSFSNPPAQYQKIMKRLIKRYVLQAQIDKESDEV | 480 |
| TRPC6(801–878) R852A/K859A/R860A (domain or fragment, rat, UniProt Q99N78 801-878, looked up, C-terminal part of rat TRPC6, amino acids 801-878, with R852A, K859A and R860A; Same construct as m1 (pET42b) with the triple substitution; also called triple mutation Arg852/Lys859/Arg860; source: E. coli Rosetta, purified (Chelating Sepharose Fast Flow, Superdex 75)) NKRNEEKKFGILGSHEDLSKFSLDRNQLAHNKQSSTRSSEDFHLNSFSNPPAQYQKIMAALIKRYVLQAQIDKESDEV | 2620 |
| TRPC6(801–878) R864A (domain or fragment, rat, UniProt Q99N78 801-878, looked up, C-terminal part of rat TRPC6, amino acids 801-878, with R864A; Same construct as m1 (pET42b) with the point mutation; source: E. coli Rosetta, purified (Chelating Sepharose Fast Flow, Superdex 75)) NKRNEEKKFGILGSHEDLSKFSLDRNQLAHNKQSSTRSSEDFHLNSFSNPPRQYQKIMKRLIKAYVLQAQIDKESDEV | 920 |
